Assay results reported in article PMC6927325.

Tests used:
[1] = molecular target: fluorescein-labeled ALK peptide F1577…1587; assay: fluorescence polarisation; fluorescein-labeled peptides and GST-PTBi in solution
[2] = molecular target: fluorescein-labeled ALK peptide G1473…1483; assay: as above

- Kd [1]: 500 nM
- Kd [2]: 700 nM
Substance: GST-fused NUMB PTB domain with the exon 3 insert (11 aa) (domain or fragment)
